Assay results reported in the supplement of paper PMC10567573.

B1: RTN1 (parent)
chain: VVAYLALAALSATISFRIYKSVLQ
B2: STX11 (parent)
chain: FQRAMHDYNQAEMKQRDNCKIRIQ

Variants of: B1
Experiment: protein stability index of a GFP-peptide fusion (GPS, HEK-293T) (PSI 1-6); higher = more stable
Details: c terminus: a fixed tail appended
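Note: lentivirally expressed fusions sorted by FACS into six bins by GFP to DsRed ratio, PSI derived from sequencing read proportions per bin multiplied by bin number.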

Protein stability index, by site and new letter:
Q24: L 2.2 | V 3.35 | I 1.85 | R 3.71 | N 3.38 | D 3.01 | S 2.03 | K 2.45 | Y 3.94 | P 2.84 | C 2.5 | G 2.92 | T 2.08
V22: K 4.89 | Q 2.7 | S 2.57 | Y 4.13 | H 2.31 | L 2.33 | W 4.26 | I 1.83 | R 2.44 | T 2.38
L23: V 2.5 | S 1.66 | A 2.28 | Q 1.9 | I 3.31 | M 3.52 | Y 3.05 | H 3.01 | K 2.66 | R 2.55 | E 2.65 | P 2.48 | C 3.13

Variants of: B2
Experiment: as above
Details: c terminus: a fixed tail appended

Protein stability index of substitutions, site by site:
E12: Q 2.31 | D 2.5 | R 2.83 | P 2.02 | W 2.39 | N 2.29 | V 2.52 | I 2.44 | M 1.6 | A 2.32 | F 2.29
R22: K 2.42 | I 2.58 | S 3.44 | E 2.67 | A 2.61 | V 2.6 | N 2.61 | P 3.02 | W 1.74 | G 2.57 | M 2.8
I23: Q 3.52 | R 2.74 | W 2.83 | C 2.9 | A 3.51 | P 3.24 | F 2.5 | L 2.87 | N 3.78 | E 3.53 | Y 2.98
H6: M 1.96 | C 2.7 | V 2.8 | Q 2.66 | I 2.42 | A 2.74 | Y 3.26 | P 2.5 | K 2.74 | S 1.9 | R 2.16 | T 3.06
K14: R 2.18 | F 2.91 | M 2.82 | C 3.08 | P 2.85 | N 2.94 | T 2.69 | I 2.3 | G 3.11 | E 3.93 | W 2.86 | H 2.57 | A 2.98 | D 3.08 | Y 2.14
Q24: S 2.27 | R 2.33 | T 2.77 | L 3.09 | H 2.74 | A 2.62 | Y 2.05 | V 2.42 | W 1.6 | N 2.95 | C 2.3 | E 3.17 | F 2.17 | P 2.83
D7: S 2.21 | H 2.3 | M 2.85 | I 1.7 | Y 1.67 | L 1.43 | R 2.12 | G 2.18 | A 2.67 | T 2.23
K20: L 3.26 | C 2.23 | W 1.6 | M 2.46 | V 2.14 | R 2.37
D17: T 1.98 | S 1.78 | P 2.97 | K 1.98 | N 2.28 | H 2.15 | M 2 | I 1.8 | Y 1.89 | W 1.68 | C 2.09 | R 1.82 | F 1.16 | E 2.81
F1: R 3.28 | W 3.69 | P 4.17 | S 4.1 | Y 2.78 | H 4.18 | L 3.29 | K 3.98 | M 3.82 | E 4.17 | V 3.46 | T 4.11 | N 4.4 | C 3.56 | G 3.88
R3: H 2.97 | F 2.07 | Y 2.25 | N 3.12 | C 1.65 | G 2.88 | K 3.01 | S 2.51 | Q 3.28 | E 3.99 | I 2.38 | L 2.76
